US20240084003A1 (SIMCERE ZAIMING PHARMACEUTICAL, published 2024)

T1: human CD22, endogenous on Raji cells (human, UniProt P20273 20-847)
T1 construct: whole, on cells; Endogenous protein of the Raji cell line
T1 sequence (looked up): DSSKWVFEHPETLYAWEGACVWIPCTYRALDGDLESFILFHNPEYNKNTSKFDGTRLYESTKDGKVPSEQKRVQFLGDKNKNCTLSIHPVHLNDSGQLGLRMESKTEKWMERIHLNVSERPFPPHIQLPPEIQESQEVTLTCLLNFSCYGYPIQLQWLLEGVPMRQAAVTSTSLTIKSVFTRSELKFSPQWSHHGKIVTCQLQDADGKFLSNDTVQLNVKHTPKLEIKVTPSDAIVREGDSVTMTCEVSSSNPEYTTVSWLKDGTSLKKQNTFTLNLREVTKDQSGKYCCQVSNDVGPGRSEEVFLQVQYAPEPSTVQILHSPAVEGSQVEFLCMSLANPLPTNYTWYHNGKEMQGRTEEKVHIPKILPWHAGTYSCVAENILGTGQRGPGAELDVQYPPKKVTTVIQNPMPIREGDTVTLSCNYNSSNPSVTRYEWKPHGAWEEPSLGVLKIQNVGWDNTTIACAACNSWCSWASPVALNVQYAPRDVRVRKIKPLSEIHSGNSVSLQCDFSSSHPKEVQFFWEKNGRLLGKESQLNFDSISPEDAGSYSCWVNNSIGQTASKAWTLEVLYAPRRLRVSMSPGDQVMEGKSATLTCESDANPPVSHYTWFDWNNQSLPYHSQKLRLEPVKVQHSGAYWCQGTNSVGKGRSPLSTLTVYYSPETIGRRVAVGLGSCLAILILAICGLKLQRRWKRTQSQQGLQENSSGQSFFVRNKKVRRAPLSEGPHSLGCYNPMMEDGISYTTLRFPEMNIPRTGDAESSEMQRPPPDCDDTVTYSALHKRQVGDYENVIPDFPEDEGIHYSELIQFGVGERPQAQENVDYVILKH

T2: human CD22, full length, on CHO-K1-human CD22 2C4 cells (human, UniProt P20273 20-847)
T2 construct: Full-length human CD22 (NCBI NP_001762.2) stably transfected into CHO-K1
T2 sequence: T1 sequence (looked up)

T3: murine CD22 protein (ACROBiosystems, SI2-M52Ha) (murine, UniProt P35329 22-708)
T3 construct: extracellular domain; also called murine CD22-ECD; murine CD22-ECD-His
T3 sequence (looked up): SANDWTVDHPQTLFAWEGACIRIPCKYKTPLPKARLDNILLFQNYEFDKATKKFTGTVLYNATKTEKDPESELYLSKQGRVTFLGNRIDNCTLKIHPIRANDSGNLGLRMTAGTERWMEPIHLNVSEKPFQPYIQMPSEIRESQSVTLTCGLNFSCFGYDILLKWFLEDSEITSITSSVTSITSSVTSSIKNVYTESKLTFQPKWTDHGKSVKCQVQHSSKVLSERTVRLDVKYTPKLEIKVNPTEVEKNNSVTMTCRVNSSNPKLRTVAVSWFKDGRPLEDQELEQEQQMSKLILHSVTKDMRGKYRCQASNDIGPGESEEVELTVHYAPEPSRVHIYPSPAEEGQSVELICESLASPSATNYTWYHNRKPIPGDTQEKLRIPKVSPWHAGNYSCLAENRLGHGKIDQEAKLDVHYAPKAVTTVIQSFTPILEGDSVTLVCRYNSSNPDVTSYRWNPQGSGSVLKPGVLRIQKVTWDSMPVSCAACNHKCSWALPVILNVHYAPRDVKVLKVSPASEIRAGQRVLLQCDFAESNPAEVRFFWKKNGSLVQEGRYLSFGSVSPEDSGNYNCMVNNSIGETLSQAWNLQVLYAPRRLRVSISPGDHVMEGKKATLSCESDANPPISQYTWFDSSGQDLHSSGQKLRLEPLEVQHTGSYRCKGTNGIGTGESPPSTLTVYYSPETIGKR

B1: F2.127.11 (antibody, human IgG1, lambda, V domains shown)
VH: QVTLKESGPGILQPSQTLSLTCSFSGFSLSTFGMGVGWIRQPSGKGLEWLAHIWWDDDKHYNPALKSRLTISKDTSRNQVFLKIANVDTADGATYFCARDNWVSSLDYWGQGTSVIVSS
VL: QPVITQSSSASFSLGASAELTCTLSSQHSTYTIEWYQQQPLKPPKYVMGLKKDGSHSTGDGIPDRFSGSSSGADRYLSISNIQPEDEAIYICGVSDTIKEQFVYVFGGGTKVTVLG
notes: human-murine chimeric IgG1 lambda; VL name legible
B2: F1.161.7 (antibody, human IgG1, kappa, V domains shown)
VH: QVQLQQPGAELVKPGASVKMSCKASGYTFTSYWISWVKQRPGQGLEWIGDIYPGTGSSNYNEKFKSKATLTVDTSSSTAYMQLSSLTSEDSAVYYCARLKFEGIGYWGQGTTLTVSS
VL: QIVLTQSPAIMSASLGEEITLTCSASSSVSYMHWFQQKSGTSPKLLIYSISNLASGVPSRFSGSGSGTFYSLTISSVEAEDAADYYCHQWSSYPWTFGGGTKLEIKR
notes: human-murine chimeric IgG1 kappa
B3: F1.62.10 human-murine chimeric antibody (antibody, human IgG1, kappa, V domains shown)
VH: QVQLQQSGPELVKPGASVKISCKASGYEFSSIWMNWVKQRPGEGLEWIGRIFPGDGEINYNEKFKGKATLTADRSSTTAYMQLSSLTSEDSAVYFCAGWRIYYGTYGAMDYWGQGTSVTVSS
VL: DIQMTQITSSLSASLGDRVTISCRASQDIGNYLNWYQQKPDGTVKLLIYYTSRLHSGVPSRFSGSGSRTDYSLTISNLQQEDIATYFCQQGNTLPWTFGGGTKLEIKR
notes: Chimeric, human IgG1 / kappa

Assays:
[1] = target: T4, CD22 on cynomolgus monkey peripheral blood B cells (cynomolgus monkey (Macaca fascicularis)); experiment: FACS, cynomolgus PBMC, CD20+ B cells, antibody 1 nM
T4 construct: whole, on cells; also called cynomolgus monkey B cells
Text: (§1) The monkey peripheral blood mononuclear cells were extracted from fresh cynomolgus monkey peripheral blood (purchased from Shanghai Medicilon Inc.) according to the instructions of Ficoll-Paque Plus (purchased from GE Healthcare, catalog number: 171440-02). After the cell suspension was centrifuged, the cells were resuspended in PBS containing 1% BSA, and then the cells were counted. At the same time, the murine antibody Brilliant Violet 605 anti-human CD20 (catalog number: 302334, purchased from Biolegend) with monkey CD20 cross-binding activity and the chimeric antibodies to be tested (1 nM, 10 nM and 100 nM) were added and incubated at room temperature for 1 hour. After washing the cells three times, APC-labeled secondary antibody anti-human IgG Fc (catalog number: 409306, purchased from Biolegend) was added. After incubation at room temperature in the dark for 30 minutes, the cells were washed 5 times, gently resuspended with PBS containing 1% BSA, and detected and analyzed by FACS (FACS Canto™, purchased from BD Company). Wherein CD20 was used as a marker of B cells, and the CD20-positive B cell population was gated, the proportion of chimeric antibody positive cells was analyzed, and the proportion of chimeric antibody positive cell population to B cell population was calculated after treatments with the chimeric antibodies at the concentrations of 100 nM, 10 nM and 1 nM, respectively. The scatter plot of double-stained cells by Brilliant Violet 605-labeled CD20 and APC secondary antibody indirectly labeled chimeric antibody is shown in FIG. 10A-FIG. 10B (under the condition of 1 nM of chimeric antibody concentration).

[2] = target: T4, CD22 on cynomolgus monkey peripheral …; experiment: FACS, cynomolgus PBMC, CD20+ B cells, antibody 10 nM
Text: as §1

[3] = target: T4, CD22 on cynomolgus monkey peripheral …; experiment: FACS, cynomolgus PBMC, CD20+ B cells, antibody 100 nM
Text: as §1

[4] = target: T1, human CD22, endogenous on Raji cells; experiment: FACS, Raji cells
Summary of the method: (§2)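 Raji cells and CHO-K1 cells expressing human CD22 were blocked in PBS + 2% BSA at 2×10⁶ cells/ml and incubated with chimeric antibody for 2 h on ice. Bound antibody was detected with an Alexa Fluor 488 secondary for 1 h on ice and read by flow cytometry as MFI. EC50 came from curve fitting.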

[5] = target: T2, human CD22, full length, on …; experiment: FACS, CHO-K1-human CD22 2C4 cells
Summary of the method: as §2

[6] = target: T3, murine CD22 protein (ACROBiosystems, …); experiment: ELISA, coated murine CD22, 10 nM Ab
Summary of the method: (§3)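 First, CD22 (2 μg/mL, PBS) was coated at 4° C overnight. Second, wells were blocked with PBS containing 2% BSA for 2 h at room temperature. Third, antibody and then HRP secondary were each incubated 2 h at 37° C. Finally, TMB colour was stopped with HCl.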

[7] = target: T3, murine CD22 protein (ACROBiosystems, …); experiment: ELISA, coated murine CD22, 0.1 nM Ab
Summary of the method: as §3

[8] = target: T3, murine CD22 protein (ACROBiosystems, …); experiment: ELISA, coated murine CD22, 100 nM Ab
Summary of the method: as §3

[9] = target: T3, murine CD22 protein (ACROBiosystems, …); experiment: ELISA, coated murine CD22, 0.01 nM Ab
Summary of the method: as §3

[10] = target: T3, murine CD22 protein (ACROBiosystems, …); experiment: ELISA, coated murine CD22, 0.001 nM Ab
Summary of the method: as §3

[11] = target: T3, murine CD22 protein (ACROBiosystems, …); experiment: ELISA, coated murine CD22, 0.0001 nM Ab
Summary of the method: as §3

[12] = target: T3, murine CD22 protein (ACROBiosystems, …); experiment: ELISA, coated murine CD22, 0.00001 nM Ab
Summary of the method: as §3

Row | Binder | Proportion of chimeric antibody positive cells to B cells (%) [1] [%] | Proportion of chimeric antibody positive cells to B cells (%) [2] [%] | Proportion of chimeric antibody positive cells to B cells (%) [3] [%] | EC50 [4] [nM] | Maximum mean fluorescence intensity [4] [MFI] | EC50 [5] [nM] | Maximum mean fluorescence intensity [5] [MFI] | OD450 [6] [OD450] | OD450 [7] [OD450] | OD450 [8] [OD450] | OD450 [9] [OD450] | OD450 [10] [OD450] | OD450 [11] [OD450] | OD450 [12] [OD450]
1 | B1 | 20 | 21 | 22 | – | – | – | – | – | – | – | – | – | – | –
2 | B2 | 16 | 21 | 29 | – | – | – | – | – | – | – | – | – | – | –
3 | B3 | – | – | – | 1.1 | 25600 | 1.31 | 29200 | 0.06 | 0.05 | 0.08 | 0.05 | 0.05 | 0.06 | 0.07
